In paper PMC12647017, “Discovery and optimization of a synthetic small protein domain targeting antibodies” (Frontiers in Bioengineering and Biotechnology, 2025):
Values belong to the molecule of their own block, whether it stands above or below them.

Legend:
[1] = Solubility / precipitation observed during production, dialysis and purification; assay type: physicochemical
Method: Therefore, after expression the soluble fractions were further centrifuged at 42,000 g for 20 min at 4 °C. As the samples were diluted (∼5 mg/mL in 25 mL lysis buffer), the soluble fractions were lyophilized and resuspended in 4 mL of water. The samples were dialyzed (Membranes Spectra Pre-Treated 1 kDa, Carl Roth) to Binding buffer without imidazole (20 mM Sodium Phosphate, 500 mM Sodium Chloride pH 7.4) for 24 h at 16 °C. The samples were quantified by […] (typically ∼6 mg/mL), this solution was diluted 1:2 in Binding buffer (20 mM Sodium Phosphate, 500 mM Sodium Chloride, 20 mM imidazole pH 7.4) and purified in a gravitational flow with 6 mL of resin (IMAC Sepharose 6 Fast Flow (Ni^2+), Cytiva) packed in a PD-10 column. The column was prepared using the indications of the manufacturer. The binding of the protein to the column was maximized by an incubation for 1 h at room temperature in agitation at 40rpm. The resin was washed 4 x column volumes (CV) with binding buffer. The elution as achieved by incubation for 15min with elution buffers. We used a gradient with 3 x CV elution buffer 1 (binding buffer with 100 mM imidazole) and 3 x CV elution buffer 2 (binding buffer with 200 mM imidazole).
The most enriched elutions in WW domains (60%–70% purity) were combined and dialysed against PBS1x (10 mM Na2HPO4, 1.8 mM KH2PO4, 2.7 mM KCl, 137 mM NaCl pH 7.4) with routine changes of buffer up to 48 h at 16 °C. Following the samples were concentrated with a Amicon-Ultra15 3 kDa MWCO (Millipore) with centrifugation conditions 4,900 g, 30 min, 4 °C. The final samples were quantified by BCA assay.
Size Exclusion Chromatography (SEC). The samples were further purified by SEC to achieve 90% purity in a AKTA system (Cytiva). The column Superdex 75 Increase 10/300 GL (29148721, Cytiva) was washed with water and equilibrated 2CV in PBS1x, as described by the manufacturer. As calibrants we prepare a mixture: 2 mg/mL of Bovine Serum Albumin (66 kDa, BP9702-100, FisherScientific), Ovalbumin (42 kDa, A5503-1G, Sigma), Chicken Lysozyme ([…], 62,971–10G-F, Fluka) and hPin1_WW chemically synthesized (5 kDa, produced in ([Dias et al., 2015])) in PBS 1x, this sample was filtered with 0.2 µm PES (514–0073, VWR) and analysed. The operation conditions: flow 0.5 mL/min, 0.05 CV in PBS1x and injection of 250 µL and run for 2 CV with PBS 1x at 16 °C. The same method was used for the WW domain samples. After purifications samples were quantified for total protein by BCA assay, as described previously and used for characterization.

[2] = test system: hIgG; assay: ELISA of soluble fractions of native and mutated WW domains against hIgG; assay type: binding; conditions: human IgG, soluble fraction, ABTS
Method: The soluble fraction of 100 mL cultures (100 μL) was used for ELISA against hIgG, as described in ([Dias et al., 2025]). Briefly, the target hIgG was immobilized (1 μg/well) in 0.1 M Sodium Bicarbonate pH 8.6 in Immuno Maxisorp ELISA plates (Thermo Fisher), overnight at 4 °C. In the next day, the unbound hIgG was removed, and the wells washed with PBS1x. To the wells was added the blocking solution – 5% (v/v) Soya Milk in PBS 1x and incubated for 1 h at room temperature. The wells were washed and incubated with 100 µL of soluble fraction (∼0.065 mg/mL total protein) at room temperature for 2 h.
The unbound WW domains were removed, and the wells were washed using 4 times PBS1x-0.05% Tween 20 and 1 time with PBS1x. For detection was used 1:1,000 anti-His-HRP conjugated antibody (MA1-21315-HRP, Invitrogen) in 1% (v/v) Soya Milk in PBS1x and incubated for 1 h at RT, after that the wells were washed with 5x PBS1x. The detection occurred with ABTS (2,2′-azino-bis(3-ethylbenzothiazoline-6-sulfonic acid) ready solution (11684302001, Roche), which was incubated in the dark for 1 h at 37 °C. Finally, the results were analysed in a microplate reader (Tecan) with appropriate filter at Abs405nm.
Figure S6 – Production and signal characterization of mutated versions. A – Tris-Tricine gels after cell lysis of the WW prototype sequence (WWp, band at ~8KDa), mutated WWp5_4 scaffold (WWp5_4_M2, band at ~8 kDa) and mutated E6 (E6_M2, band at ~ 12kDa). Samples were normalized 90µg total protein/lane. M - Precision Plus Protein™ Dual Xtra Prestained, Biorad; SF – soluble fraction; ISF – insoluble fraction. B1, B2, and B3 indicate production batchs in 1L culture, except for WWp B1 – 100 mL, WWp_5_4 B2 – 900 mL. Stained with Simplyblue. […] The detection of the clones was made with anti-His conjugated antibody with HRP and detected with ABTS as substrate.
Figure S7 – Comparison between ELISA signal of E6 versus E6_M2. […] The expression levels were detected by direct coating of the microplate well with the soluble fraction of the extract. […] All were detected with ABTS as substrate.

[3] = target: human IgG conjugated with fluorescein isothiocyanate (IgG-FITC) (human); assay: MST; IgG-FITC fixed at 50 nM; 16 serial dilutions of E6 from 23.5 uM to 0.7 nM; 50 mM MOPS, 0.05% Tween-20, pH 7; 25 C; fit models Kd and Hill
[4] = target: human IgG conjugated with fluorescein isothiocyanate (IgG-FITC) (human); assay: MST; hIgG-FITC (Sigma F9636) fixed at 25 nM; 16 samples of E6_M2_T2 from 695 nM in 1:2 serial dilution; PBS, 0.05% Tween-20, pH 7.4; 25 C; fit models Kd and Hill

Molecule: C S GK LPPGW E E R KTRRFKLG R TYYYNHHILSKTS Q W EH PR G SS [Clone E6_M2, E6 with mutated framework and N-terminal Cys]
solubility compared with native counterpart E6 ([1]; IMAC purification without chaotropic agents): higher solubility than the native counterpart | precipitation / solubility after dialysis ([1]; dialysis against PBS1x pH 7.4, up to 48 h at 16 °C): some precipitation | binding signal relative to negative control (E. coli Rosetta extract) ([2]; E6 detected with anti-HA-HRP, E6_M2 and Rosetta extract with anti-His-HRP): 2 times | binding signal relative to scaffold framework (WWp5_4) ([2]; anti-His-HRP, Abs405nm): 2 times

EC50 [3]: 146 nM | Kd [3]: 133 nM
Molecule: SMGLPPGWDEYKTRRFKLGKTYYYNHHILSKTSTWTDPRMSS (designed binder) [E6 (lead ligand, WWp5_4 scaffold), without tag]

EC50 [4]: 157 nM | Kd [4]: 62 nM
B1: E6_M2_T2 (head-to-tail dimer of E6_M2) (designed binder)
chain: CSGKLPPGWEERKTRRFKLGRTYYYNHHILSKTSQWEHPRGSSSGKLPPGWEERKTRRFKLGRTYYYNHHILSKTSQWEHPRGSS
